Experiments:
[1] = biological target: USF-1 overexpressed in 293FT cells (UniProt P22415)
[2] = biological target: USF-1 overexpressed in 293FT cells (UniProt P22415); remark: listed apart in the source
[3] = biological target: USF-1 (UniProt P22415); experiment: co-immunoprecipitation, immunoblot; settings: reference: wild type; sites T505

USF-1 overexpressed in 293FT cells, sequence (P22415 whole entry): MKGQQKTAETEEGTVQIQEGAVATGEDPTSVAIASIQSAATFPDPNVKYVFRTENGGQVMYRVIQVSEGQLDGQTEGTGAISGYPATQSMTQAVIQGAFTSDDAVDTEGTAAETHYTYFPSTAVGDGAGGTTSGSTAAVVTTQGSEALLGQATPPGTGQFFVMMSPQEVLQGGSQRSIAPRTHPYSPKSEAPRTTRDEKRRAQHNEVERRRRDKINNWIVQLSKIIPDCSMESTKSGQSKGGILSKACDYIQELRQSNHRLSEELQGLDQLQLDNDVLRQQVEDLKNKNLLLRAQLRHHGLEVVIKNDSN

ChIP-qPCR enrichment at the FAS promoter (FAS promoter luc construct) upon insulin treatment [1]	FAS promoter (-444-FAS promoter-luciferase) activity in 293FT cells co-transfected with JMJD1C along with USF-1 [2]	binding against the reference [3]	Substance
17 fold			JMJD1C T505D mutant, Q15652 1-2540
12 fold	27 fold		WT JMJD1C, Q15652 1-2540
		lost	JMJD1C (from UniProt Q15652) T505A
